# In patent publication US20150352207A1, “USE OF ANTIBODIES AGAINST ICAM-1 IN COMBINATION WITH AN ANTI CANCER DRUG IN THE TREATMENT OF PATIENTS” (BIOINVENT INTERNATIONAL AB, priority 2013, published 2015):
# Like-named read-outs stand apart in the source and are kept apart here.
# B1: IgG B11: novel human ICAM-1 antibody targeting the B11 epitope, isolated from the naïve antibody library n-CoDeR (antibody, V domains shown)
# VH: EVQLLESGGGLVQPGGSLRLSCAASGFTFSNAWMSWVRQAPGKGLEWVAFIWYDGSNKYYADSVKGRFTISRDNSKNTLYLQMNSLRAEDTAVYYCARYSGWYFDYWGQGTLVTVSS
# VL: QSVLTQPPSASGTPGQRVTISCTGSSSNIGAGYDVHWYQQLPGTAPKLLIYDNNNRPSGVPDRFSGSKSGTSASLAISGLRSEDEADYYCQSYDSSLSAWLFGGGTKLTVLG
# modifications: B11 antibody variable H region; B11 antibody variable L region
# How the values were obtained:
# RPMI-8226 myeloma cells = experiment: Subcutaneous scid myeloma xenograft, RPMI-8226; format: in vivo, scid mice; details: 2 mg/kg twice weekly
# Description: (§1) Antibody treatment with 2 mg/kg B11 or control IgG1 was started at Day 1 and was continued on a twice-weekly intraperitoneal dosing regimen. Mice were sacrificed when tumor sizes reached the ethical limit.
# ARH-77 cells = experiment: Disseminated scid/ARH-77 model of multiple myeloma; format: in vivo, scid mice; details: i.v. on Days 7, 10, 13, 16; antibody 2 mg/kg, bortezomib 0.5 mg/kg; vs control treatment
# Description: ARH-77 cells or RPMI-8226 were injected intravenously into the SCID mice. (A) ARH-77 model. Animals received intravenous injections with antibody at 2 mg/kg or bortezomib (Velcade) at 0.5 mg/kg on Days 7, 10, 13, and 16 (as indicated by arrows in the graph). (B) RPMI-8226-model. B11 or control mAb was administered i.v at 2 mg/kg, twice weekly for 8 weeks, bortezomid, at 1 mg/kg, once weekly for 8 weeks, lenalidomide p.o with 2 mg/kg for 2 cycles consisting of 5 days of treatment and 2 days of wash out, melphalan i.v at 3 mg/kg, once weekly for 8 weeks, and dexamethasone (DXH) at 6 mg/kg/inj 3 times/week for 2 consecutive weeks. There were 6-10 mice per treatment group. Statistical significance was calculated using Log-rank Graphpad Prism software and determined at ***p<0.001. (C) To study the ICAM-1 level on human cells, the cells from different organs were stained and gated for CD38+/mCD45−/B11+. Left panel indicates the percentage of B11 positive cells in CD38+/mCD45 population and right panel the mean fluorescent intensity of the positive cells.
# The anti-myeloma effect of B11 was examined in a disseminated model of multiple myeloma. The early and advanced disseminated model of multiple myeloma was performed at Oncodesign, Dijon, France. Briefly: 1×10^6 (early) or 5×10^6 (advanced) ARH-77 tumor cells in 200 μL of RPMI 1640 were injected intravenously (i.v) into the caudal vein of female scid mice (D0). Tumor cell injections were performed twenty four to forty eight hours after a whole body irradiation of mice (1.8 Gy, ^60Co, INRA, BRETENNIERES). The treatment was started at D5 RPMI-8226 model or D7 (ARH-77 model) […]. B11 or control mAb was administered i.v. at 2 mg/kg, twice weekly for 8 weeks, bortezomib, at 1 mg/kg, once weekly for 8 weeks, lenalidomide p.o with 2 mg/kg for 2 cycles consisting of 5 days of treatment and 2 days of wash out, melphalan i.v. at 3 mg/kg, once weekly for 8 weeks, and dexamethasone at 6 mg/kg 1 injected 3 times a week for 2 consecutive weeks.
# The disseminated model of scid/ARH-77 is a well-established experimental model that resembles human multiple myeloma disease progression and disease manifestation in many respects (33). We utilized this model to further characterize IgG B11 anti-myeloma activity (FIG. 6A). Intravenous injection of irradiated scid mice with 1×10^6 ARH-77 cells was previously shown to result in their dissemination and establishment in mouse bone-marrow, and resulting osteolytic bone-lesions and hypercalcemia, and ultimately, in animal paralysis or difficulty of breathing at which time animals were immediately sacrificed. […]
# EJM myeloma cells = experiment: Subcutaneous scid myeloma xenograft, EJM; format: in vivo, scid mice; details: 2 mg/kg twice weekly
# Description: as §1
# [1] = test system: HUVEC, HMVEC or peripheral blood B cells; experiment: ADCC of normal ICAM-1 expressing cells; format: cell-based
# Description: Buffy coats from human donors (ordered through Blodcentralen, Lund) were used to isolate peripheral blood mononuclear cells (PBMCs), and subsequently NK cells. Briefly, peripheral blood components were separated using Ficoll Paque PLUS (Amersham Biosciences, Sweden) in LeucoSep tubes (Greiner Bio-One). The PBMC fraction was removed and thoroughly washed in ice-cold DPBS (Invitrogen), before magnetic labeling and separation of the NK cell population using positive or negative NK cell isolation kits and MACS LS columns (Miltenyi Biotec). The purity of the obtained NK cell fractions was analyzed using flow cytometry, after staining with α-CD56 antibodies (BD Biosciences). Target cells were harvested, and incubated in medium with or without the respective antibodies (2 μg/mL) for 60 min on ice. Cells were thereafter washed and resuspended in cold medium before dispension into FACS tubes. Subsequently, isolated NK cells were diluted in ADCC medium and dispensed together with the respective antibody-coated target cells at varying effector/target cell ratios (40:1, 20:1, 5:1 and 1:1). All experiments were performed in triplicates. After completed incubation ToPo-Pro-3 dye and counting beads (Invitrogen) were added and cells were analyzed for membrane permeabilization using flow cytometry.
# NCI-H929 myeloma cells = experiment: Subcutaneous scid myeloma xenograft, NCI-H929; format: in vivo, scid mice; details: 2 mg/kg twice weekly
# Description: as §1
# [2] = test system: ICAM-1 expressing tumor cell lines; experiment: Complement-dependent cytotoxicity (CDC) in tumor cell lines; format: cell-based; details: panel of ICAM-1 expressing tumor cell lines
# Description: Target cells were harvested and incubated in RPMI medium with antibodies at 5 μg/mL or at titrated concentrations between 0.01-100 μg/mL for 60 min on ice. Cells were thereafter washed and resuspended in cold medium before dispension into flow cytometry tubes. Treatments were performed in triplicates. Human serum, normal or heat-inactivated, (Sigma, Sweden) was added to tubes and the samples were incubated for 2 h at 37° C. After completed incubation ToPo-Pro-3 was added at a final concentration of 0.3 μM and cells were analyzed for membrane permeabilization using flow cytometry.
molecule,measurement,setting,value
B1,reduction of myeloma tumor growth,RPMI-8226 myeloma cells,96%
same,animal survival,ARH-77 cells,increased mean survival time
same,time to symptomatic disease onset,ARH-77 cells,doubled the time to symptomatic disease onset
same,reduction of myeloma tumor growth,EJM myeloma cells,98%
same,ADCC of normal cells,[1],did not confer ADCC or CDC
same,ADCC of normal cells,[1]; listed as B11,not significantly affected
same,reduction of myeloma tumor growth,NCI-H929 myeloma cells,99%
same,induction of CDC,[2],did not induce CDC
